Measurements reported in patent US20260209357A1 (CSL INNOVATION, published 2026).
Where a chain is given by its changes, count along the chain named. In names and notes the source's numbering stands. Values belong to the binder of their own block, whether it stands above or below them.

Key:
[1] = biological target: T1, biotinylated human FcRn/β2m (human, UniProt P55899 24-297; P61769 21-119, biotinylated (Biotin-NHS amine chemistry or BirA biotin ligase; site not stated)); experiment: SPR, surface-bound huFcRn/b2m, pH 7.3
T1 construct: The soluble human FcRn/β2m after biotinylation, tethered on streptavidin or neutravidin chips; also called surface-captured biotinylated human FcRn complexed with β2m

Human IgG1 Fc (huG1Fc) = biological target: T2, Human IgG1 Fc (huG1Fc) (human, UniProt P0DOX5 218-449 = IgG part); experiment: SPR, ligand directly immobilised, soluble Fcγ receptor as analyte, pH 7.3
T2 construct: Wild-type Fc control, directly immobilised on the chip; also called G1Fc homodimer

[2] = biological target: T1, biotinylated human FcRn/β2m; experiment: SPR, biotinylated FcRn/β2m on streptavidin or neutravidin chip, antagonist as analyte (avidity conditions), pH 7.3; column head printed ka (1/s)
[3] = biological target: T1, biotinylated human FcRn/β2m; experiment: SPR, biotinylated FcRn/β2m on streptavidin or neutravidin chip, antagonist as analyte (avidity conditions), pH 7.3
[4] = biological target: T3, soluble recombinant human FcRn/β2m (human, UniProt P55899 24-297; P61769 21-119); experiment: SPR, ligand on surface, soluble HuFcRn/b2m as analyte; pH not printed with the table (paragraph 351 speaks of pH 6.0)
T3 construct: About 42 kDa; also called HuFcRn/b2m; huFcRn/b2m

B1: Vyvgart (other)
chain: DKTHTCPPCPAPELLGGPSVFLFPPKPKDTLYITREPEVTCVVVDVSHEDPEVKFNWYVDGVEVHNAKTKPREEQYNSTYRVVSVLTVLHQDWLNGKEYKCKVSNKALPAPIEKTISKAKGQPREPQVYTLPPSRDELTKNQVSLTCLVKGFYPSDIAVEWESNGQPENNYKTTPPVLDSDGSFFLYSKLTVDKSRWQQGNVFSCSVMHEALKFHYTQKSLSLSPGK
notes: also called Efgartigimod; commercially available Vyvgart product
Kd [1]: 2.3 nM

B3: huG1FcYPY (other)
chain: EPKSCDKTHTCPPCPAPELLGGPSVFLFPPKPKDTLYISRTPEVTCVVVDVSHEDPEVKFNWYVDGVEVHNAKTKPREEQYNSTYRVVSVLTPLHQDWLNGKEYKCKVSNKALPAPIEKTISKAKGQPREPQVYTLPPSRDELTKNQVSLTCLVKGFYPSDIAVEWESNGQPENNYKTTPPVLDSDGSFFLYSKLTVDKSRWQQGNVFSCSVMHEALHYHYTQKSLSLSPGK
notes: Fc fragment alone; also called G1FcYPY homodimer
koff [2]: 0.000532 s⁻¹
Kd [3]: 1.1 nM
kon [3]: 492000 M⁻¹ s⁻¹
Kd [4]: 16.9 nM
koff [4]: 0.00525 s⁻¹
kon [4]: 311000 M⁻¹ s⁻¹

Now from value to binder:

Kd (Human IgG1 Fc (huG1Fc)): 0.086 nM
B2: human FcγRI (CD64) (receptor, UniProt P12314 16-292, looked up)
chain: QVDTTKAVITLQPPWVSVFQEETVTLHCEVLHLPGSSSTQWFLNGTATQTSTPSYRITSASVNDSGEYRCQRGLSGRSDPIQLEIHRGWLLLQVSSRVFTEGEPLALRCHAWKDKLVYNVLYYRNGKAFKFFHWNSNLTILKTNISHNGTYHCSGMGKHRYTSAGISVTVKELFPAPVLNASVTSPLLEGNLVTLSCETKLLLQRPGLQLYFSFYMGSKTLRGRNTSSEYQILTARREDSGLYWCEAATEDGNVLKRSPELELQVLGLQLPTPVWFH
notes: extracellular domain; also called FcyRI (CD64)

koff [2]: 0.00236 s⁻¹
Kd [3]: 2.4 nM
kon [3]: 970000 M⁻¹ s⁻¹
B4: huG1FcYTEKF (other)
chain: B3 chain with S39T, T41E, P93V, H218K, Y219F
notes: Human IgG1 Fc with M252Y, S254T, T256E, H433K, N434F, modelled on efgartigimod with five more N-terminal residues (EPKSC); Fc dimer is to be expected; also called benchmark molecule
